Data set [1] deals with Aβ (Monomer, Aggregate). The conditions noted are these: A = aggregate, M = monomer; ref [9]–[19],[54] as given per antibody in column Ref. of Table 1; cited from earlier work.
The target of data set [2] is Aβ1-40. Nature of the data set: ELISA, binding of Fab fragments to biotinylated Aβ1-40 on streptavidin-coated plates. The conditions noted are these: papain-generated Fab fragments, Aβ1-40-Lys-Biotin 1 μg/mL on streptavidin plates, average of two measurements. (In general: An ELISA detects its analyte on a solid surface through an enzyme-linked reagent.)
Method: For binding studies with Fab fragments, biotin-conjugated Aβ1-40 (Aβ1-40-Lys-Biotin; AnaSpec) was captured on streptavidin-coated plates (Thermo Fisher Scientific) by incubating 50 μL/well of the peptide at a concentration of 1 μg/mL in Assay Buffer (PBS containing 1% bovine serum albumin (BSA)) for 1 h at room temperature. Plates were washed with Wash Buffer (PBS containing 0.05% Tween-20) and blocked for 1 h at room temperature with Blocking Buffer (PBS containing 1% BSA). Antibodies or Fabs were serially diluted to the indicated concentrations in Assay Buffer, and 50 μL/well were added to plates in duplicate wells and incubated for 2 h at room temperature. Plates were washed three times with Wash Buffer, and bound antibodies or Fabs were detected using a horseradish peroxidase (HRP)-conjugated goat anti-mouse polyclonal secondary antibody (Jackson ImmunoResearch), followed by measurement of captured HRP by incubation with 1-Step TMB substrate (Thermo Fisher Scientific) following the manufacturer’s instructions.
Data set [3] relates to tetrameric Aβ1-15 MAP. The data set is described as follows: ELISA with multi-antigen peptides, tetramer. The following applies: result in words. The format is binding. The method, then:
(§1) Aβ peptide binding to anti-Aβ antibodies measured by isothermal titration calorimetry (ITC). Titration of mAb with Aβ1-28 peptide. […]
(§2) mAb:Aβ ratio. The solid line is the fit to a two-site binding model (2 Aβ peptides binding to 1 mAb). The average KD values were calculated from […]
(§3) ELISA of binding of anti-Aβ antibodies to bivalent and tetravalent multi-antigen peptides Biotinylated Aβ1-15 multivalent multi-antigen peptides (MAPs) based on branched lysine residues were custom synthesized and purified (LifeTein). […]
(§4) goat anti-mouse IgG Fcγ fragment-specific antibody (Jackson ImmunoResearch) in Coating Buffer. The coated plates were washed, blocked as described in Methods, and incubated with serial dilutions of dimeric or tetrameric biotinylated Aβ1-15 MAP in Blocking Buffer at the indicated concent rations in […]
(§5) (1 picture or pasted object on this page, not shown here)
(§6) Figure S5. Binding of anti-Aβ antibodies to dimeric and tetrameric Aβ as assessed by ELISA. (a) Design of biotin-conjugated Aβ1-15 multivalent multi-antigen peptides (MAPs). Binding of anti-Aβ antibodies to MAPs with Aβ1-15x2 dimer (b) and Aβ1-15x4 tetramer (c).

The target of data set [4] is fibrillar Aβ1-42. Nature of the data set: ELISA, binding of antibodies to immobilized Aβ1-42 fibrils. The following applies: mIgG2a chimeric antibodies on fibrillar Aβ1-42 coated at 2.5 μg/mL, 2 h room temperature, average of two measurements, read-out: mAb binding aggregated Aβ1-42 (EC50).
Method: For binding of antibodies to immobilized Aβ, 96-well microplates (Nunc Maxisorp; Thermo Fisher Scientific) were coated with 50 μL/well of fibrillar Aβ1-42 peptide at 2.5 μg/mL overnight at 4 °C in Coating Buffer (15 mM Na2CO3, 35 mM NaHCO3, pH 9.6). […] Plates were washed with Wash Buffer (PBS containing 0.05% Tween-20) and blocked for 1 h at room temperature with Blocking Buffer (PBS containing 1% BSA). Antibodies or Fabs were serially diluted to the indicated concentrations in Assay Buffer, and 50 μL/well were added to plates in duplicate wells and incubated for 2 h at room temperature. Plates were washed three times with Wash Buffer, and bound antibodies or Fabs were detected using a horseradish peroxidase (HRP)-conjugated goat anti-mouse polyclonal secondary antibody (Jackson ImmunoResearch), followed by measurement of captured HRP by incubation with 1-Step TMB substrate (Thermo Fisher Scientific) following the manufacturer’s instructions.
Data set [5] deals with monomeric Aβ1-40. The following applies: read-out: mAb binding soluble Aβ1-40 (EC50); ELISA; monomeric biotinylated Aβ1-40 on captured antibody (5 μg/mL); average of two measurements.
Method: For preparation of monomeric Aβ peptides, the Aβ HFIP film was dissolved in dimethyl sulfoxide (DMSO) at a concentration of 1 mg/mL then diluted to the target concentration in assay buffers and used immediately.
To measure binding of soluble monomeric Aβ1-40 peptide to immobilized antibodies, plates were coated with 50 μL/well of 5 μg/mL AffiniPure goat anti-mouse IgG Fcγ fragment-specific antibody (Jackson ImmunoResearch) in Coating Buffer. […] Plates were incubated at room temperature for 1 h, washed 3 times with Wash Buffer, incubated with serially diluted monomeric biotin-conjugated Aβ1-40 (Aβ1-40-Lys-Biotin; AnaSpec) in Blocking Buffer at the indicated concentrations, and washed 3 times with Wash Buffer. Binding was detected using HRP-conjugated streptavidin (Thermo Fisher Scientific) followed by incubation with 1-Step TMB substrate.
Data set [6] concerns monomeric Aβ1-40-biotin. The data set is described as follows: SPR, Fab fragments binding to surface-captured Aβ1-40-biotin. The following applies: SPR Biacore T200. On the procedure: Figure 2 Surface plasmon resonance analysis of the binding of anti-Aβ antibody Fab fragments to Aβ1-40-biotin immobilized on a biotin-capture sensor chip surface. […] Fabs were injected over an Aβ1-40-biotin coated sensor chip for 2 min in (a) and 3 min in (b–d), where the rising response describes the approach to steady state binding and beyond which the response drops due to dissociation of the Fabs.
Binding kinetics and affinity measurements were performed with a Biacore T200 instrument (GE Healthcare). Aβ1-40-biotin was captured on a Biotin CAPture chip (GE Healthcare) at 3–7 pg/mm^2 from solutions at 10–20 ng/mL in Biacore buffer (10 mM HEPES, pH 7.2, 150 mM NaCl, 3.4 mM EDTA, 0.05% BSA, 0.005% surfactant P20) using reagents and protocols provided by the manufacturer. […] Antibody Fab fragments were injected for 2-3 min at 30 μL/min and a range of concentrations in Biacore buffer, as indicated in the Fig. 2 legend, and the binding response relative to a reference sensor with no Aβ1-40-biotin was recorded. Data were analyzed with Biacore T200 Evaluation Software v3.0 using a 1:1 binding model.

Data set [7] has as its system Aβ1-40 fibrils. Nature of the data set: Negative-stain EM of fibrils with gold-conjugated antibodies. The following applies: fibril-associated 10-nm gold particles (≤10 nm to fibril) per μm^2; 100 images; ^chaducanumab higher. The format is binding. The method, then:
Figure 3 Negative-stain electron microscopy of Aβ1-40 fibrils incubated with gold-conjugated anti-Aβ antibodies. […] 100 images were collected for each sample. A representative image for each data set is shown. Scale bars are 100 nm. (e) Labeling densities were calculated as the number of fibril-associated gold particles (distance of ≤10 nm to fibril) per 1 μm^2 for each image, with mean ± SD for each group. The differences in the gold-labeled antibodies binding to Aβ fibrils were tested with a one-way ANOVA.
Aβ1-40 and Aβ1-42 peptides (AnaSpec) were dissolved in 5 M guanidine-HCl, 50 mM Tris-HCl, pH 8.0 at a concentration of 1 mg/mL. For growth of the Aβ1-40 fibrils, the solution was dialyzed (dialysis tubes, 1 kDa cutoff, GE Healthcare) against buffer (100 mM Na2HPO4, pH 8, 0.01% NaN3) for 4–6 h, then sonicated and agitated based on protocols described by Petkova and colleagues. […]
A 5-μL aliquot of Aβ1-40 or Aβ1-42 fibril sample (1 mg/mL) was adsorbed for 1 min on a glow-discharged carbon-coated copper grid. […] All quantifications were done using the Visiopharm image analysis software. Gold-conjugated anti-Aβ antibodies and Aβ1-40 or Aβ1-42 fibrils were detected with a customized algorithm. […] The data were subjected to a D’Agostino & Pearson normality test, and P-values were subsequently calculated using a Kruskal-Wallis one-way analysis of variance (ANOVA).

Data set [8] concerns the target Aβ1-16 peptide. The data set is described as follows: Microscale thermophoresis (MST). The format is binding. The conditions noted are these: MST in solution; 5-TAMRA-labeled Aβ1-16; PBS, Triton X-100; average of three replicates. (MST reads how a fluorescent partner responds to local heating, with and without ligand.)
Data set [9] relates to soluble Aβ1-28. Nature of the data set: SPR, soluble Aβ1-28 binding to surface-captured intact antibody.
Data set [10] has as its target Aβ1-40 monomer. The data set is described as follows: ELISA-based competition assay: antibody binding to immobilized oligomeric Aβ1-42 competed by free monomeric Aβ1-40. The conditions noted are these: immobilized oligomeric Aβ1-42 2.5 μg/mL, antibody 0.4 nM, 2 h room temperature, mean of duplicate wells. The method, then: Finally, we determined the binding of Fab fragments of the antibodies to Aβ1-40 (Fig. 1d).
To measure competition by soluble monomeric Aβ1-40, plates were coated with Aβ1-42 peptide at 2.5 μg/mL as above. In this case the oligomeric preparation of […] was used as the substrate to ensure sufficient signal with each test antibody. […] The plates were incubated at room temperature for 2 h, and bound antibody was detected with an HRP-conjugated goat anti-mouse polyclonal secondary antibody followed by measurement of HRP activity using 1-Step TMB substrate as described above. All data points are the mean of duplicate wells.

Data set [11] deals with dimeric Aβ1-15 MAP. Nature of the data set: ELISA with multi-antigen peptides, dimer. The format is binding. The conditions noted are these: result in words. On the procedure: as §1, §2, §3, §4, §5, §6
The test system of data set [12] is Aβ1-42 fibrils. The data set is described as follows: Negative-stain EM of fibrils with gold-conjugated antibodies. The class given is binding. The conditions noted are these: fibril-associated gold particles per μm^2; 100 images; chaducanumab higher. On the procedure:
Aβ1-40 and Aβ1-42 peptides (AnaSpec) were dissolved in 5 M guanidine-HCl, 50 mM Tris-HCl, pH 8.0 at a concentration of 1 mg/mL. For growth of the Aβ1-40 fibrils, the solution was dialyzed (dialysis tubes, 1 kDa cutoff, GE Healthcare) against buffer (100 mM Na2HPO4, pH 8, 0.01% NaN3) for 4–6 h, then sonicated and agitated based on protocols described by Petkova and colleagues. For Aβ1-42 fibrils, the dialysis buffer was supplemented with 100 mM NaCl and 100 μM ZnCl2 to decrease fibril polymorphism, as previously described. All Aβ fibrils were grown at 24 °C for 3 days. […]
A 5-μL aliquot of Aβ1-40 or Aβ1-42 fibril sample (1 mg/mL) was adsorbed for 1 min on a glow-discharged carbon-coated copper grid. […] All quantifications were done using the Visiopharm image analysis software. Gold-conjugated anti-Aβ antibodies and Aβ1-40 or Aβ1-42 fibrils were detected with a customized algorithm. […] The data were subjected to a D’Agostino & Pearson normality test, and P-values were subsequently calculated using a Kruskal-Wallis one-way analysis of variance (ANOVA). […]
100 images were collected for each sample. […] (e) Labeling densities were calculated as the number of fibril-associated gold particles per µm2 for each image with mean ± SD for each group, as described in Fig 3. Quantification of the number of gold particles that […]

Where [13] appears, read: Fab binding to Aβ1-40-biotin captured at 3–7 pg/mm^2, 1:1 binding model.

B1: BAN2401: anti-Aβ clinical candidate antibody, Ph2; mouse analog mAb158 (antibody, chains of the INN, looked up, V domains shown)
VH: EVQLVESGGGLVQPGGSLRLSCSASGFTFSSFGMHWVRQAPGKGLEWVAYISSGSSTIYYGDTVKGRFTISRDNAKNSLFLQMSSLRAEDTAVYYCAREGGYYYGRSYYTMDYWGQGTTVTVSS
VL: DVVMTQSPLSLPVTPGAPASISCRSSQSIVHSNGNTYLEWYLQKPGQSPKLLIYKVSNRFSGVPDRFSGSGSGTDFTLRISRVEAEDVGIYYCFQGSHVPPTFGPGTKLEIK
Turning to B1, the “Aβ selectivity (Monomer, Aggregate)” value in data set [1] is listed as “A ≫ M”.

B2: gantenerumab: anti-Aβ clinical candidate antibody, Ph3 (antibody, chains of the INN, looked up, V domains shown)
VH: QVELVESGGGLVQPGGSLRLSCAASGFTFSSYAMSWVRQAPGKGLEWVSAINASGTRTYYADSVKGRFTISRDNSKNTLYLQMNSLRAEDTAVYYCARGKGNTHKPYGYVRYFDVWGQGTLVTVSS
VL: DIVLTQSPATLSLSPGERATLSCRASQSVSSSYLAWYQQKPGQAPRLLIYGASSRATGVPARFSGSGSGTDFTLTISSLEPEDFATYYCLQIYNMPITFGQGTKVEIK
In data set [2], B2 registered an EC50 of 5.9 nM.

B3: ^chgantenerumab: murine chimeric IgG2a/kappa analog with the variable domains of gantenerumab (antibody, chains of the INN, looked up, V domains shown)
VH: B2 VH
VL: B2 VL
modifications: murine chimeric IgG2a/kappa
Consider B3, for which the “affinity for tetrameric Aβ1-15 MAP” value in data set [3] was “sub-nanomolar”. For the same molecule, the results for the EC50 in data set [4], in [5] and in data set [2] were 0.3 nM, 300 nM and 5.9 nM, respectively. Moreover, in data set [6] (setting [13]), the “Association rate, ka” value was 660000 M⁻¹ s⁻¹. Also, in [6] (setting [13]), the “Dissociation rate, kd” value was found to be 0.015 s⁻¹. In addition, the Kd in data set [6] (Fab binding to Aβ1-40-biotin, ^chaducanumab from steady state fit, read-out: Equilibrium affinity, KD) is 23 nM; in data set [8], 97 nM; in data set [9] (intact antibody captured at 100-600 RU on CM5 mouse antibody capture chip, 1:1 binding model, read-out: affinity of soluble Aβ1-28 for antibody), ~1000 nM. The “labeling density of ^chaducanumab compared to the named antibody” value in [7] turned out to be 3.6 fold. Moreover, the “decrease in affinity using soluble Aβ versus immobilized Aβ1-40” value in data set [9] (comparison with Table 2) is listed as > 50 fold. The “decrease in association rate using soluble Aβ” value in data set [9] (comparison with immobilized Aβ1-40) was 20 fold. The IC50 in data set [10] came out at 330 nM. The “affinity for dimeric Aβ1-15 MAP” value in data set [11] is “sub-nanomolar”. Moreover, the “labeling density of chaducanumab compared to the named antibody” value in [12] is on record as 3.1 fold.

As a reminder, the EC50 is the concentration giving half of the maximal effect. A word on the IC50: it is the concentration that gives 50% inhibition.

These data come from publication PMC5913127 (Scientific Reports, 2018).
